Experimental data reported in patent publication US20220401557A1 (Chugai, published 2022).

Molecular target: CD3 on NFAT-RE-luc2-Jurkat cells (human, UniProt P07766 23-207)
Experiment: cell-based or functional assay

Sequence of CD3 on NFAT-RE-luc2-Jurkat cells (P07766 23-207): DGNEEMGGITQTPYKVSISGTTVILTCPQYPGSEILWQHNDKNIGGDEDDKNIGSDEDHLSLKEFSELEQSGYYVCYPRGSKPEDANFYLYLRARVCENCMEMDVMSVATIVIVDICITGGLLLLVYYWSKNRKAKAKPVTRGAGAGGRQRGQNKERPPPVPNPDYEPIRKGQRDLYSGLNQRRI

B1: hCE115HAuPA27/GLS//GCH065 (bispecific antibody, human IgG1, kappa, N297A)
heavy 1: QDGNEEMGGITQTPYKVSISGTTVILTLSGRSDNHQVQLVESGGGVVQPGRSLRLSCAASGFTFSNAWMHWVRQAPGKGLEWVAQIKAKSNNYATYYAESVKGRFTISRDDSKNSLYLQMNSLKTEDTAVYYCRYVHYGAYYGVDAWGQGTTVTVSSASTKGPSVFPLAPSSKSTSGGTAALGCLVKDYFPEPVTVSWNSGALTSGVHTFPAVLQSSGLYSLSSVVTVPSSSLGTQTYICNVNHKPSNTKVDKKVEPKSCDKTHTCPPCPAPELRGGPKVFLFPPKPKDTLMISRTPEVTCVVVDVSHEDPEVKFNWYVDGVEVHNAKTKPREEQYASTYRVVSVLTVLHQDWLNGKEYKCKVSNKALPAPIEKTISKAKGQPREPQVYTLPPSRKEMTKNQVSLTCLVKGFYPSDIAVEWESNGQPENNYKTTPPYLDSDGSFFLYSKLTVDKSRWQQGNVFSCSVMHEALHNHYTQKSLSLSP
light 1: DIVMTQSPLSLPVTPGEPASISCRSSQSLVHSNRNTYLHWYQQKPGQAPRLLIYKVSNRFSGVPDRFSGSGSGTDFTLKISRVEAEDVGVYYCGQGTQVPYTFGQGTKLEIKRTVAAPSVFIFPPSDEQLKSGTASVVCLLNNFYPREAKVQWKVDNALQSGNSQESVTEQDSKDSTYSLSSTLTLSKADYEKHKVYACEVTHQGLSSPVTKSFNRGEC
heavy 2: QVQLVQSGAEVKKPGASVTVSCKASGYTFTDYEMHWIRQPPGEGLEWIGAIDGPTPDTAYSEKFKGRVTLTADKSTSTAYMELSSLTSEDTAVYYCTRFYSYTYWGQGTLVTVSSASTKGPSVFPLAPSSKSTSGGTAALGCLVKDYFPEPVTVSWNSGALTSGVHTFPAVLQSSGLYSLSSVVTVPSSSLGTQTYICNVNHKPSNTKVDKKVEPKSCDKTHTCPPCPAPELRGGPKVFLFPPKPKDTLMISRTPEVTCVVVDVSHEDPEVKFNWYVDGVEVHNAKTKPREEQYASTYRVVSVLTVLHQDWLNGKEYKCKVSNKALPAPIEKTISKAKGQPREPQVYTLPPSREEMTKNQVSLTCLVKGFYPSDIAVEWESNGQPENNYKTTPPYLDSDGSFFLYSKLTVDKSRWQQGNVFSCSVMHEALHNHYTQESLSLSP
light 2: DIVMTQSPLSLPVTPGEPASISCRSSQPLVHSNRNTYLHWYQQKPGQAPRLLIYKVSNRFSGVPDRFSGSGSGTDFTLKISRVEAEDVGVYYCGQGTQVPYTFGQGTKLEIKRTVAAPSVFIFPPSDEQLKSGTASVVCLLNNFYPREAKVQWKVDNALQSGNSQESVTEQDSKDSTYSLSSTLTLSKADYEKHKVYACEVTHQGLSSPVTKSFNRGEC
increase rate due to the protease treatment (luciferase, uPA-treated / untreated), antibody 0.1 nM: 0.9 ratio
increase rate due to the protease treatment (luciferase, uPA-treated / untreated), antibody 1 nM: 1.4 ratio
